The record followed here is article PMC3481545.

Targets include Activin (UniProt P08476); BMP-7 (UniProt P18075); GDF-5 (UniProt P43026).
Common to all, as to assay: SPR

Sequence of GDF-5 (P43026 382-501): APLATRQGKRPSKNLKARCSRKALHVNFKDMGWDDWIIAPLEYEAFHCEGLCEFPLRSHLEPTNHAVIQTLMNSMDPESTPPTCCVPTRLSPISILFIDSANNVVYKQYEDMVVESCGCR
Sequence of BMP-7 (P18075 293-431): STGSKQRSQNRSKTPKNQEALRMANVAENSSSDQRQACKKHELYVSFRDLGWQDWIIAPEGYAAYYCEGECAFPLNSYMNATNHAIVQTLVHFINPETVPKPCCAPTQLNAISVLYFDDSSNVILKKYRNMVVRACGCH

For “AΔA: ActR-IIB ECD with its A-loop deleted (domain or fragment)”, the dissociation constant Kd is more than 1300 µM in the experiment with Activin, 30 µM with BMP-7 and more than 1.3 mM with GDF-5.

Turning to “BΔB: BMPR-II ECD with its A-loop deleted (from UniProt Q13873 26-150) (domain or fragment)”, the Kd is 94 µM with Activin, 27 µM in the experiment with BMP-7 and more than 1.3 mM with GDF-5.

For the substance “human recombinant ActR-IIB ECD, wild type (from UniProt Q13705 19-134) (domain or fragment)”, the Kd with BMP-7 is 16 µM; with GDF-5 it was more than 1.3 mM.
